Test results as given in patent US6084068, “Elongin A and C functional domains” (Oklahoma Medical Research Foundation, dated 2000).

Experiments:
[1] = target: T1, Elongin BC complex (wild type rat Elongin B and C) (rat, UniProt P62870); experiment: refolded with wild type Elongin B and C; TSK SP-NPR HPLC, SDS-PAGE, silver staining
T1 chain 1: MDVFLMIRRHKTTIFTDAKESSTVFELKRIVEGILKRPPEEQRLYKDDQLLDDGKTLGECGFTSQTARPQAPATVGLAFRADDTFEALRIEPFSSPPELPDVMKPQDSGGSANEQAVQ
T1 chain 2: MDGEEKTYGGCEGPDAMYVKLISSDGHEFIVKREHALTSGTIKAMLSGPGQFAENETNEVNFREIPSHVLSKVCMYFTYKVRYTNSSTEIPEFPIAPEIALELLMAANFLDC

wild type Elongin B = wild type Elongin B (rat, UniProt P62870); experiment: refolded with wild type Elongin B; TSK DEAE-NPR HPLC, SDS-PAGE, silver staining
Experimental: Figure 10A: FIG. 10A. […] Aliquots of the indicated column fractions were analyzed by SDS-PAGE, and proteins were visualized by silver staining. Figure 10B: FIG. 10B. N-terminal, C-terminal, and internal Elongin C deletion mutants were assayed for their abilities to form Elongin BC complexes as described.
~6 µg of Elongin B was mixed with ~6 µg of either wild type or mutant Elongin C and diluted 5-fold with 40 mM Hepes-NaOH (pH 7.9), 100 mM KCl, 2 mM DTT, 50 µM ZnSO_4, 0.1 mM EDTA, and 10% (v/v) glycerol. After incubation for 90 min on ice, the mixtures were dialyzed at 4° C. overnight against 40 mM Tris-HCl (pH 7.9), 0.1 mM EDTA, 10% (v/v) glycerol, and 40 mM KCl. Following dialysis, the mixtures were centrifuged at 60,000×g for 15 min at 4° C. The resulting supernatants were applied to TSK DEAE-NPR columns (35 mm×4.6 mm, Toso-Haas) pre-equilibrated in 40 mM Tris-HCl (pH 7.9), 0.1 mM EDTA, 1 mM DTT, 10% (v/v) glycerol, and 40 mM KCl and fractionated using a SMART microchromatography system (Pharmacia) at 8° C. The columns were eluted at 0.3 ml/min with a 3 ml linear gradient from 0.04 to 0.5M KCl in 40 mM Tris-HCl (pH 7.9), 0.1 mM EDTA, 1 mM DTT, and 10% (v/v) glycerol. Aliquots of each column fraction were analyzed by 10% Tris-Tricine SDS-polyacrylamide gel electrophoresis, and the proteins were visualized by silver staining.

B1: Elongin A internal deletion mutant Δ521-545 (other)
chain: MAAESALQVVEKLQARLAANPDPKKLLKYLKKLSVLPITVDILVETGVGKTVNSFRKHEQVGNFARDLVAQWKKLVPVERNNEAEDQDFEKSNSRKRPRDVPQQEEEAEGNYQESWQASGSQPYSPEHRQKKHRKLPELERPHKVAHGHERRDERKRCHKVSPPYSSDPESSDYGHVQSPPPSSPHQMYTDLSRSPEMDQEPIVSHPKPGKVHSNTFQDRLGVSHLGEHQGKGAVSQNKPHKSSHKEKRPVDARGDEKSSVMGREKSHKASSKEESRRLLSEDSAKEKLPSSVVKKEKDREGNSLKKKLSPALDVASDNHFKKPKHKDSEKIKSDKNKQSVDSVDSGRGTGDPLPRAKDKVPNNLKAQEGKVRTNSDRKSPGSLPKVEEMDMDDEFEQPTMSFESYLSYDQPRKKKKKVVKTSGTALGEKGLKKKDSKSTSKNLNSAQKLPKANENKSDKLQPAGAEPTRPRKVPTDVLPALPDIPLPAIQTNYRPLPSLELISSFQPKRKAFSSPQEEEKMMTLHQQCIRVLKNNIDSIFEVGGVPYSVLEPVLERCTPDQLYRIEECNHVLIEETDQLWKVHCHRDFKEERPEEYESWREMYLRLQDAREQRLRLLTNNIRSAHANKPKGRQAKMAFVNSVAKPPRDVRRRQEKFGTGGAAVPEKVRIKPAPYTTGSSHVPASNSSSSFHSSPEELAYEGPSTSSAHLAPVASSSVSYDPRKPAVKKIAPMMAKTIKAFKNRFSRR
- binding result [1]: binds

B2: Elongin A internal deletion mutant Δ401-440 (other)
chain: MAAESALQVVEKLQARLAANPDPKKLLKYLKKLSVLPITVDILVETGVGKTVNSFRKHEQVGNFARDLVAQWKKLVPVERNNEAEDQDFEKSNSRKRPRDVPQQEEEAEGNYQESWQASGSQPYSPEHRQKKHRKLPELERPHKVAHGHERRDERKRCHKVSPPYSSDPESSDYGHVQSPPPSSPHQMYTDLSRSPEMDQEPIVSHPKPGKVHSNTFQDRLGVSHLGEHQGKGAVSQNKPHKSSHKEKRPVDARGDEKSSVMGREKSHKASSKEESRRLLSEDSAKEKLPSSVVKKEKDREGNSLKKKLSPALDVASDNHFKKPKHKDSEKIKSDKNKQSVDSVDSGRGTGDPLPRAKDKVPNNLKAQEGKVRTNSDRKSPGSLPKVEEMDMDDEFEQPTSKNLNSAQKLPKANENKSDKLQPAGAEPTRPRKVPTDVLPALPDIPLPAIQTNYRPLPSLELISSFQPKRKAFSSPQEEEEAGFTGRRMNSKMQVYSGSKCAYLPKMMTLHQQCIRVLKNNIDSIFEVGGVPYSVLEPVLERCTPDQLYRIEECNHVLIEETDQLWKVHCHRDFKEERPEEYESWREMYLRLQDAREQRLRLLTNNIRSAHANKPKGRQAKMAFVNSVAKPPRDVRRRQEKFGTGGAAVPEKVRIKPAPYTTGSSHVPASNSSSSFHSSPEELAYEGPSTSSAHLAPVASSSVSYDPRKPAVKKIAPMMAKTIKAFKNRFSRR
- binding result [1]: binds

B3: Elongin A internal deletion mutant Δ481-520 (other)
chain: MAAESALQVVEKLQARLAANPDPKKLLKYLKKLSVLPITVDILVETGVGKTVNSFRKHEQVGNFARDLVAQWKKLVPVERNNEAEDQDFEKSNSRKRPRDVPQQEEEAEGNYQESWQASGSQPYSPEHRQKKHRKLPELERPHKVAHGHERRDERKRCHKVSPPYSSDPESSDYGHVQSPPPSSPHQMYTDLSRSPEMDQEPIVSHPKPGKVHSNTFQDRLGVSHLGEHQGKGAVSQNKPHKSSHKEKRPVDARGDEKSSVMGREKSHKASSKEESRRLLSEDSAKEKLPSSVVKKEKDREGNSLKKKLSPALDVASDNHFKKPKHKDSEKIKSDKNKQSVDSVDSGRGTGDPLPRAKDKVPNNLKAQEGKVRTNSDRKSPGSLPKVEEMDMDDEFEQPTMSFESYLSYDQPRKKKKKVVKTSGTALGEKGLKKKDSKSTSKNLNSAQKLPKANENKSDKLQPAGAEPTRPRKVPTDVLPEAGFTGRRMNSKMQVYSGSKCAYLPKMMTLHQQCIRVLKNNIDSIFEVGGVPYSVLEPVLERCTPDQLYRIEECNHVLIEETDQLWKVHCHRDFKEERPEEYESWREMYLRLQDAREQRLRLLTNNIRSAHANKPKGRQAKMAFVNSVAKPPRDVRRRQEKFGTGGAAVPEKVRIKPAPYTTGSSHVPASNSSSSFHSSPEELAYEGPSTSSAHLAPVASSSVSYDPRKPAVKKIAPMMAKTIKAFKNRFSRR
- binding result [1]: binds

B4: Elongin A internal deletion mutant Δ546-565 (other)
chain: MAAESALQVVEKLQARLAANPDPKKLLKYLKKLSVLPITVDILVETGVGKTVNSFRKHEQVGNFARDLVAQWKKLVPVERNNEAEDQDFEKSNSRKRPRDVPQQEEEAEGNYQESWQASGSQPYSPEHRQKKHRKLPELERPHKVAHGHERRDERKRCHKVSPPYSSDPESSDYGHVQSPPPSSPHQMYTDLSRSPEMDQEPIVSHPKPGKVHSNTFQDRLGVSHLGEHQGKGAVSQNKPHKSSHKEKRPVDARGDEKSSVMGREKSHKASSKEESRRLLSEDSAKEKLPSSVVKKEKDREGNSLKKKLSPALDVASDNHFKKPKHKDSEKIKSDKNKQSVDSVDSGRGTGDPLPRAKDKVPNNLKAQEGKVRTNSDRKSPGSLPKVEEMDMDDEFEQPTMSFESYLSYDQPRKKKKKVVKTSGTALGEKGLKKKDSKSTSKNLNSAQKLPKANENKSDKLQPAGAEPTRPRKVPTDVLPALPDIPLPAIQTNYRPLPSLELISSFQPKRKAFSSPQEEEEAGFTGRRMNSKMQVYSGSKCAYLPFEVGGVPYSVLEPVLERCTPDQLYRIEECNHVLIEETDQLWKVHCHRDFKEERPEEYESWREMYLRLQDAREQRLRLLTNNIRSAHANKPKGRQAKMAFVNSVAKPPRDVRRRQEKFGTGGAAVPEKVRIKPAPYTTGSSHVPASNSSSSFHSSPEELAYEGPSTSSAHLAPVASSSVSYDPRKPAVKKIAPMMAKTIKAFKNRFSRR
- binding result [1]: no binding

B5: Elongin A point mutant L550S (other)
chain: MAAESALQVVEKLQARLAANPDPKKLLKYLKKLSVLPITVDILVETGVGKTVNSFRKHEQVGNFARDLVAQWKKLVPVERNNEAEDQDFEKSNSRKRPRDVPQQEEEAEGNYQESWQASGSQPYSPEHRQKKHRKLPELERPHKVAHGHERRDERKRCHKVSPPYSSDPESSDYGHVQSPPPSSPHQMYTDLSRSPEMDQEPIVSHPKPGKVHSNTFQDRLGVSHLGEHQGKGAVSQNKPHKSSHKEKRPVDARGDEKSSVMGREKSHKASSKEESRRLLSEDSAKEKLPSSVVKKEKDREGNSLKKKLSPALDVASDNHFKKPKHKDSEKIKSDKNKQSVDSVDSGRGTGDPLPRAKDKVPNNLKAQEGKVRTNSDRKSPGSLPKVEEMDMDDEFEQPTMSFESYLSYDQPRKKKKKVVKTSGTALGEKGLKKKDSKSTSKNLNSAQKLPKANENKSDKLQPAGAEPTRPRKVPTDVLPALPDIPLPAIQTNYRPLPSLELISSFQPKRKAFSSPQEEEEAGFTGRRMNSKMQVYSGSKCAYLPKMMTSHQQCIRVLKNNIDSIFEVGGVPYSVLEPVLERCTPDQLYRIEECNHVLIEETDQLWKVHCHRDFKEERPEEYESWREMYLRLQDAREQRLRLLTNNIRSAHANKPKGRQAKMAFVNSVAKPPRDVRRRQEKFGTGGAAVPEKVRIKPAPYTTGSSHVPASNSSSSFHSSPEELAYEGPSTSSAHLAPVASSSVSYDPRKPAVKKIAPMMAKTIKAFKNRFSRR
- binding result [1]: no binding

B6: Elongin A internal deletion mutant Δ441-480 (other)
chain: MAAESALQVVEKLQARLAANPDPKKLLKYLKKLSVLPITVDILVETGVGKTVNSFRKHEQVGNFARDLVAQWKKLVPVERNNEAEDQDFEKSNSRKRPRDVPQQEEEAEGNYQESWQASGSQPYSPEHRQKKHRKLPELERPHKVAHGHERRDERKRCHKVSPPYSSDPESSDYGHVQSPPPSSPHQMYTDLSRSPEMDQEPIVSHPKPGKVHSNTFQDRLGVSHLGEHQGKGAVSQNKPHKSSHKEKRPVDARGDEKSSVMGREKSHKASSKEESRRLLSEDSAKEKLPSSVVKKEKDREGNSLKKKLSPALDVASDNHFKKPKHKDSEKIKSDKNKQSVDSVDSGRGTGDPLPRAKDKVPNNLKAQEGKVRTNSDRKSPGSLPKVEEMDMDDEFEQPTMSFESYLSYDQPRKKKKKVVKTSGTALGEKGLKKKDSKSTALPDIPLPAIQTNYRPLPSLELISSFQPKRKAFSSPQEEEEAGFTGRRMNSKMQVYSGSKCAYLPKMMTLHQQCIRVLKNNIDSIFEVGGVPYSVLEPVLERCTPDQLYRIEECNHVLIEETDQLWKVHCHRDFKEERPEEYESWREMYLRLQDAREQRLRLLTNNIRSAHANKPKGRQAKMAFVNSVAKPPRDVRRRQEKFGTGGAAVPEKVRIKPAPYTTGSSHVPASNSSSSFHSSPEELAYEGPSTSSAHLAPVASSSVSYDPRKPAVKKIAPMMAKTIKAFKNRFSRR
- binding result [1]: binds

B7: Elongin A deletion mutant A(1-535) (other)
chain: MAAESALQVVEKLQARLAANPDPKKLLKYLKKLSVLPITVDILVETGVGKTVNSFRKHEQVGNFARDLVAQWKKLVPVERNNEAEDQDFEKSNSRKRPRDVPQQEEEAEGNYQESWQASGSQPYSPEHRQKKHRKLPELERPHKVAHGHERRDERKRCHKVSPPYSSDPESSDYGHVQSPPPSSPHQMYTDLSRSPEMDQEPIVSHPKPGKVHSNTFQDRLGVSHLGEHQGKGAVSQNKPHKSSHKEKRPVDARGDEKSSVMGREKSHKASSKEESRRLLSEDSAKEKLPSSVVKKEKDREGNSLKKKLSPALDVASDNHFKKPKHKDSEKIKSDKNKQSVDSVDSGRGTGDPLPRAKDKVPNNLKAQEGKVRTNSDRKSPGSLPKVEEMDMDDEFEQPTMSFESYLSYDQPRKKKKKVVKTSGTALGEKGLKKKDSKSTSKNLNSAQKLPKANENKSDKLQPAGAEPTRPRKVPTDVLPALPDIPLPAIQTNYRPLPSLELISSFQPKRKAFSSPQEEEEAGFTGRRMNSKMQV
- binding result [1]: no binding

B8: Elongin C deletion mutant C(1-97) (other)
chain: MDGEEKTYGGCEGPDAMYVKLISSDGHEFIVKREHALTSGTIKAMLSGPGQFAENETNEVNFREIPSHVLSKVCMYFTYKVRYTNSSTEIPEFPIAP
- binding result (wild type Elongin B): binds
